Test results published in PMC7000336, “Structural insights and activating mutations in diverse pathologies define mechanisms of deregulation for phospholipase C gamma enzymes” (EBioMedicine, 2020).
Each block holds one molecule with its values, some of them ahead of it.

How the values were obtained:
PLCγ1 (Homo sapiens) = PLCγ1 (Homo sapiens) (UniProt P19174); conditions: cited from earlier work
Full-length human PLCγ1 = target: T1, Full-length human PLCγ1 (human, UniProt P19174 1-1290); experiment: cryo-EM structure; complex of PLCγ1 and FGFR1-1P (mixed 1:10, purified by SEC), cross-linked with BS3 and purified again; 0.6 mg/ml on grids; 25 mM HEPES, 150 mM NaCl, 2 mM TCEP, pH 7.5; no ATP; Titan Krios with Volta phase plate; map at 5–8 Å with known domain structures docked as rigid bodies; conditions: both partners purified
T1 construct: phospholipase C gamma 1 (PLCγ1), human, full length; YFP fusions are named only for the lipid array (LiMA), so Myc is surmised here; Cloned in a Gateway-modified pTriEx4 and purified as a His-tagged protein; No removal of tags is described; also called hPLCγ1; intact PLCγ1; source: Freestyle 293F cells, transfected, purified (HisTrap, Superdex 200)
T1 sequence (looked up): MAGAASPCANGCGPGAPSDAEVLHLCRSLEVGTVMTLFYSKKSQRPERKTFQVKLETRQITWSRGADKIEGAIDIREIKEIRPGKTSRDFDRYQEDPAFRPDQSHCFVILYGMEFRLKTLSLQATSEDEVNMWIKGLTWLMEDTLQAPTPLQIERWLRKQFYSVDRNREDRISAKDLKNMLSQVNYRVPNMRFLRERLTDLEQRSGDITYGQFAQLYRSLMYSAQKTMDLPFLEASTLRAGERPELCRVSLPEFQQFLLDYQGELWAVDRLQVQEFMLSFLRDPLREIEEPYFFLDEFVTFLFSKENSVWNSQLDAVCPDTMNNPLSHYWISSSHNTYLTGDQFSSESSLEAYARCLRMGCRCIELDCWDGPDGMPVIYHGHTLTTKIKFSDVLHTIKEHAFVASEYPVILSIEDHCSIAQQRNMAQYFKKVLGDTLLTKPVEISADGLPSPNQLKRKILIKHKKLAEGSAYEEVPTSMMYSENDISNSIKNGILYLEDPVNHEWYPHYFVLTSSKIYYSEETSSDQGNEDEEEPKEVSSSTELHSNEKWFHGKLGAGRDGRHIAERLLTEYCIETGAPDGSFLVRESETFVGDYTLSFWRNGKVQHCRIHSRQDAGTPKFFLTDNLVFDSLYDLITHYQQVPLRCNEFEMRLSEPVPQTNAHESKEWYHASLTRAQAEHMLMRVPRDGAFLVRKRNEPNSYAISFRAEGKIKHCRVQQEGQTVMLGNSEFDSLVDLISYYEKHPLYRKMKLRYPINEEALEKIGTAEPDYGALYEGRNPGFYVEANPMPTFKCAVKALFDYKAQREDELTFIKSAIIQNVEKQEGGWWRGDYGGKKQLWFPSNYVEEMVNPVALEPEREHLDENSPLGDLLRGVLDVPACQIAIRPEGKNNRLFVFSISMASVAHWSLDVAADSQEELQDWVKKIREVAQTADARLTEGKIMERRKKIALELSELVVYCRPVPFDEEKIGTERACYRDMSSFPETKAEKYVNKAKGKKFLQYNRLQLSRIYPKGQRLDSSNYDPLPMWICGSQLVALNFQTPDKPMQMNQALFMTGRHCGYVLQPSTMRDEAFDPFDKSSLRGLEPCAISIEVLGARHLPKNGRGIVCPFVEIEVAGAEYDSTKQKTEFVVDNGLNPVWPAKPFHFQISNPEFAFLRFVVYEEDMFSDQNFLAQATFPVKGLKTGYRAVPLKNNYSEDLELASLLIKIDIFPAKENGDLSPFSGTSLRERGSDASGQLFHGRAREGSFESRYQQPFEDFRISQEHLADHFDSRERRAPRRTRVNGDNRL

Molecule: FGFR1 intracellular portion (from UniProt P11362)
- Kd (PLCγ1 (Homo sapiens)): 5 nM

- binding result (Full-length human PLCγ1): binds
B1: Human FGFR1 kinase domain (456–774, L457V, Y463F, C488A, Y583F, C584S, Y585F, Y653F and Y654F), FGFR1-1P (domain or fragment, UniProt P11362 456-774, looked up)
chain: MVAGVSEFELPEDPRWELPRDRLVLGKPLGEGAFGQVVLAEAIGLDKDKPNRVTKVAVKMLKSDATEKDLSDLISEMEMMKMIGKHKNIINLLGACTQDGPLYVIVEYASKGNLREYLQARRPPGLEFSFNPSHNPEEQLSSKDLVSCAYQVARGMEYLASKKCIHRDLAARNVLVTEDNVMKIADFGLARDIHHIDFFKKTTNGRLPVKWMAPEALFDRIYTHQSDVWSFGVLLWEIFTLGGSPYPGVPVEELFKLLKEGHRMDKPSNCTNELYMMMRDCWHAVPSQRPTFKQLVEDLDRIVALTSNQEYLDLSMPLD
modifications: phosphotyrosine at 766 (pY766; FGFR1-1P)
notes: The methods call the protein in the complex FGFR1-1P, and the results speak of pY766 in its C-terminal tail; How the phosphorylation was made is not described here; also called FGFR1int; FGFRint; source: E. coli C41 (DE3), purified (HisTrap, Ulp1 cleavage, HiTrap Q, Superdex 75); not shown: His tag, N-terminal, cleaved; SUMO (from the vector pOPINS, cut by Ulp1), N-terminal, cleaved
